From article PMC8812904

Legend:
[1] = confocal counting of punctate bodies, 2 dpai; conditions: glycan lost; control: AtVSR4-myc co-expression
[2] = qRT-PCR of TuMV (+) and (-) RNA, N. benthamiana; conditions: glycan lost; control: AtVSR4-myc co-expression
[3] = immunoblot with TBSV P19 co-expression, 2 dpai; conditions: glycan lost; control: AtVSR4 wild type with P19
[4] = immunoblot of TuMV CP, N. benthamiana; conditions: glycan lost; control: AtVSR4-myc co-expression
[5] = GFP fluorescence under UV, N. benthamiana, 3 dpai; conditions: glycan lost; control: AtVSR4-myc co-expression
[6] = symptom observation, 16 dpi; conditions: glycan lost; control: AtVSR4oe transgenic Arabidopsis
[7] = qRT-PCR of TuMV RNA, transgenic Arabidopsis, 16 dpi; conditions: glycan lost; control: AtVSR4oe transgenic Arabidopsis
[8] = anti-myc immunoblot, N. benthamiana, 2 dpai; conditions: glycan lost; control: AtVSR4-myc wild type

B1: AtVSR4 (vacuolar sorting receptor 4): AtVSR4TM (protein)
parent chain: MKQLLCYLPWLLLLSLVVSPFNEARFVVEKNSLSVTSPESIKGTHDSAIGNFGIPQYGGSMAGTVVYPKENQKSCKEFSDFSISFKSQPGALPTFLLVDRGDCFFALKVWNAQKAGASAVLVADNVDEPLITMDTPEEDVSSAKYIENITIPSALVTKGFGEKLKKAISGGDMVNLNLDWREAVPHPDDRVEYELWTNSNDECGVKCDMLMEFVKDFKGAAQILEKGGFTQFRPHYITWYCPHAFTLSRQCKSQCINKGRYCAPDPEQDFSSGYDGKDVVVENLRQLCVYKVANETGKPWVWWDYVTDFQIRCPMKEKKYNKDCAESVIKSLGIDSRKIDKCMGDPDADLDNPVLKEEQDAQVGKGTRGDVTILPTLVVNNRQYRGKLEKSAVLKALCSGFEESTEPAICLSTDMETNECLDNNGGCWQDKSANITACKDTFRGKVCVCPIVDGVRFKGDGYSHCEPSGPGRCTINNGGCWHEERDGHAFSACVDKDSVKCECPPGFKGDGVKKCEDINECKEKKACQCPECSCKNTWGSYECSCSGDLLYMRDHDTCISKTGSQVKSAWAAVWLIMLSLGLAAAGAYLVYKYRLRQYMDSEIRAIMAQYMPLDSQPEVPNHTNDERA
other: formation of 6K2 punctate bodies [1]: increases
other: viral replication, fold_change [2]: increases
expression_or_secretion [3]: decreases
other: viral replication, fold_change [4]: increases
other: viral replication [5]: increases

B2: AtVSR4 (vacuolar sorting receptor 4): AtVSR4TMoe (protein)
parent chain: MKQLLCYLPWLLLLSLVVSPFNEARFVVEKNSLSVTSPESIKGTHDSAIGNFGIPQYGGSMAGTVVYPKENQKSCKEFSDFSISFKSQPGALPTFLLVDRGDCFFALKVWNAQKAGASAVLVADNVDEPLITMDTPEEDVSSAKYIENITIPSALVTKGFGEKLKKAISGGDMVNLNLDWREAVPHPDDRVEYELWTNSNDECGVKCDMLMEFVKDFKGAAQILEKGGFTQFRPHYITWYCPHAFTLSRQCKSQCINKGRYCAPDPEQDFSSGYDGKDVVVENLRQLCVYKVANETGKPWVWWDYVTDFQIRCPMKEKKYNKDCAESVIKSLGIDSRKIDKCMGDPDADLDNPVLKEEQDAQVGKGTRGDVTILPTLVVNNRQYRGKLEKSAVLKALCSGFEESTEPAICLSTDMETNECLDNNGGCWQDKSANITACKDTFRGKVCVCPIVDGVRFKGDGYSHCEPSGPGRCTINNGGCWHEERDGHAFSACVDKDSVKCECPPGFKGDGVKKCEDINECKEKKACQCPECSCKNTWGSYECSCSGDLLYMRDHDTCISKTGSQVKSAWAAVWLIMLSLGLAAAGAYLVYKYRLRQYMDSEIRAIMAQYMPLDSQPEVPNHTNDERA
other: viral symptom severity in plants [6]: increases
other: viral replication [7]: increases

B3: AtVSR4 (vacuolar sorting receptor 4): AtVSR4TM-myc (protein)
parent chain: MKQLLCYLPWLLLLSLVVSPFNEARFVVEKNSLSVTSPESIKGTHDSAIGNFGIPQYGGSMAGTVVYPKENQKSCKEFSDFSISFKSQPGALPTFLLVDRGDCFFALKVWNAQKAGASAVLVADNVDEPLITMDTPEEDVSSAKYIENITIPSALVTKGFGEKLKKAISGGDMVNLNLDWREAVPHPDDRVEYELWTNSNDECGVKCDMLMEFVKDFKGAAQILEKGGFTQFRPHYITWYCPHAFTLSRQCKSQCINKGRYCAPDPEQDFSSGYDGKDVVVENLRQLCVYKVANETGKPWVWWDYVTDFQIRCPMKEKKYNKDCAESVIKSLGIDSRKIDKCMGDPDADLDNPVLKEEQDAQVGKGTRGDVTILPTLVVNNRQYRGKLEKSAVLKALCSGFEESTEPAICLSTDMETNECLDNNGGCWQDKSANITACKDTFRGKVCVCPIVDGVRFKGDGYSHCEPSGPGRCTINNGGCWHEERDGHAFSACVDKDSVKCECPPGFKGDGVKKCEDINECKEKKACQCPECSCKNTWGSYECSCSGDLLYMRDHDTCISKTGSQVKSAWAAVWLIMLSLGLAAAGAYLVYKYRLRQYMDSEIRAIMAQYMPLDSQPEVPNHTNDERA
expression_or_secretion [8]: decreases
